{"source": "paper doi:10.1101/2024.09.13.612588", "about": "(bioRxiv, 2024)", "target": "the molecule itself", "assay": "high-speed AFM", "data": [{"protein": "Toll/interleukin-1 receptor domain of MyD88 (TIR_(MyD88)), wild type (domain or fragment) PLGHMPERFDAFICYCPSDIQFVQEMIRQLEQTNYRLKLCVSDRDVLPGTCVWSIASELIEKRCRRMVVVVSDDYLQSKECDFQTKFALSLSPGAHQKRLIPIKYKAMKKEFPSILRFITVCDYTNPCTKSWFWTRLAKALSLP", "values": [{"measurement": "stoichiometry N", "value": 58, "unit": "subunits"}]}]}
